Numbered stars: 1 amine (or outer) side, 2 acyl side, 3 side chain; on linkers, the order of the positions; unused ones are H or OH. Square brackets hold non-standard residues; d marks the D form. Side chains are listed from the residue outwards. * marks the point of attachment. γGlu = O=C(O)[C@H](CCC(=O)[*:2])N[*:1]; Palmitoyl = CCCCCCCCCCCCCCCC(=O)*; Aib = CC(C)(N)C(=O)O
B1: Compound 7 (peptide)
peptide: H-HSQGTFTSDYSKYLDSK([γGlu-Palmitoyl])AAEDFVEWLLRA-NH2
SMILES: CCCCCCCCCCCCCCCC(=O)N[C@@H](CCC(=O)NCCCC[C@H](NC(=O)[C@H](CO)NC(=O)[C@H](CC(=O)O)NC(=O)[C@H](CC(C)C)NC(=O)[C@H](Cc1ccc(O)cc1)NC(=O)[C@H](CCCCN)NC(=O)[C@H](CO)NC(=O)[C@H](Cc1ccc(O)cc1)NC(=O)[C@H](CC(=O)O)NC(=O)[C@H](CO)NC(=O)[C@@H](NC(=O)[C@H](Cc1ccccc1)NC(=O)[C@@H](NC(=O)CNC(=O)[C@H](CCC(N)=O)NC(=O)[C@H](CO)NC(=O)[C@@H](N)Cc1c[nH]cn1)[C@@H](C)O)[C@@H](C)O)C(=O)N[C@@H](C)C(=O)N[C@@H](C)C(=O)N[C@@H](CCC(=O)O)C(=O)N[C@@H](CC(=O)O)C(=O)N[C@@H](Cc1ccccc1)C(=O)N[C@H](C(=O)N[C@@H](CCC(=O)O)C(=O)N[C@@H](Cc1c[nH]c2ccccc12)C(=O)N[C@@H](CC(C)C)C(=O)N[C@@H](CC(C)C)C(=O)N[C@@H](CCCNC(=N)N)C(=O)N[C@@H](C)C(N)=O)C(C)C)C(=O)O
B2: Compound 8 (peptide)
peptide: H-HSQGTFTSDYSKYLDSK([γGlu-Palmitoyl])AAHDFVEWLLS-NH2
SMILES: CCCCCCCCCCCCCCCC(=O)N[C@@H](CCC(=O)NCCCC[C@H](NC(=O)[C@H](CO)NC(=O)[C@H](CC(=O)O)NC(=O)[C@H](CC(C)C)NC(=O)[C@H](Cc1ccc(O)cc1)NC(=O)[C@H](CCCCN)NC(=O)[C@H](CO)NC(=O)[C@H](Cc1ccc(O)cc1)NC(=O)[C@H](CC(=O)O)NC(=O)[C@H](CO)NC(=O)[C@@H](NC(=O)[C@H](Cc1ccccc1)NC(=O)[C@@H](NC(=O)CNC(=O)[C@H](CCC(N)=O)NC(=O)[C@H](CO)NC(=O)[C@@H](N)Cc1c[nH]cn1)[C@@H](C)O)[C@@H](C)O)C(=O)N[C@@H](C)C(=O)N[C@@H](C)C(=O)N[C@@H](Cc1c[nH]cn1)C(=O)N[C@@H](CC(=O)O)C(=O)N[C@@H](Cc1ccccc1)C(=O)N[C@H](C(=O)N[C@@H](CCC(=O)O)C(=O)N[C@@H](Cc1c[nH]c2ccccc12)C(=O)N[C@@H](CC(C)C)C(=O)N[C@@H](CC(C)C)C(=O)N[C@@H](CO)C(N)=O)C(C)C)C(=O)O
B3: Compound 9 (peptide)
peptide: H-HSQGTFTSDYSKYLDSK([γGlu-Palmitoyl])AAHDFVEWLLR-OH
SMILES: CCCCCCCCCCCCCCCC(=O)N[C@@H](CCC(=O)NCCCC[C@H](NC(=O)[C@H](CO)NC(=O)[C@H](CC(=O)O)NC(=O)[C@H](CC(C)C)NC(=O)[C@H](Cc1ccc(O)cc1)NC(=O)[C@H](CCCCN)NC(=O)[C@H](CO)NC(=O)[C@H](Cc1ccc(O)cc1)NC(=O)[C@H](CC(=O)O)NC(=O)[C@H](CO)NC(=O)[C@@H](NC(=O)[C@H](Cc1ccccc1)NC(=O)[C@@H](NC(=O)CNC(=O)[C@H](CCC(N)=O)NC(=O)[C@H](CO)NC(=O)[C@@H](N)Cc1c[nH]cn1)[C@@H](C)O)[C@@H](C)O)C(=O)N[C@@H](C)C(=O)N[C@@H](C)C(=O)N[C@@H](Cc1c[nH]cn1)C(=O)N[C@@H](CC(=O)O)C(=O)N[C@@H](Cc1ccccc1)C(=O)N[C@H](C(=O)N[C@@H](CCC(=O)O)C(=O)N[C@@H](Cc1c[nH]c2ccccc12)C(=O)N[C@@H](CC(C)C)C(=O)N[C@@H](CC(C)C)C(=O)N[C@@H](CCCNC(=N)N)C(=O)O)C(C)C)C(=O)O
B4: Compound 10 (peptide)
peptide: H-HSQGTFTSDYSKYLDEK([γGlu-Palmitoyl])AAHEFVEWLESA-NH2
SMILES: CCCCCCCCCCCCCCCC(=O)N[C@@H](CCC(=O)NCCCC[C@H](NC(=O)[C@H](CCC(=O)O)NC(=O)[C@H](CC(=O)O)NC(=O)[C@H](CC(C)C)NC(=O)[C@H](Cc1ccc(O)cc1)NC(=O)[C@H](CCCCN)NC(=O)[C@H](CO)NC(=O)[C@H](Cc1ccc(O)cc1)NC(=O)[C@H](CC(=O)O)NC(=O)[C@H](CO)NC(=O)[C@@H](NC(=O)[C@H](Cc1ccccc1)NC(=O)[C@@H](NC(=O)CNC(=O)[C@H](CCC(N)=O)NC(=O)[C@H](CO)NC(=O)[C@@H](N)Cc1c[nH]cn1)[C@@H](C)O)[C@@H](C)O)C(=O)N[C@@H](C)C(=O)N[C@@H](C)C(=O)N[C@@H](Cc1c[nH]cn1)C(=O)N[C@@H](CCC(=O)O)C(=O)N[C@@H](Cc1ccccc1)C(=O)N[C@H](C(=O)N[C@@H](CCC(=O)O)C(=O)N[C@@H](Cc1c[nH]c2ccccc12)C(=O)N[C@@H](CC(C)C)C(=O)N[C@@H](CCC(=O)O)C(=O)N[C@@H](CO)C(=O)N[C@@H](C)C(N)=O)C(C)C)C(=O)O
B5: Compound 12 (peptide)
peptide: H-HSQGTFTSDYSRYLDSK([γGlu-Palmitoyl])AAHDFVEWLLSA-NH2
SMILES: CCCCCCCCCCCCCCCC(=O)N[C@@H](CCC(=O)NCCCC[C@H](NC(=O)[C@H](CO)NC(=O)[C@H](CC(=O)O)NC(=O)[C@H](CC(C)C)NC(=O)[C@H](Cc1ccc(O)cc1)NC(=O)[C@H](CCCNC(=N)N)NC(=O)[C@H](CO)NC(=O)[C@H](Cc1ccc(O)cc1)NC(=O)[C@H](CC(=O)O)NC(=O)[C@H](CO)NC(=O)[C@@H](NC(=O)[C@H](Cc1ccccc1)NC(=O)[C@@H](NC(=O)CNC(=O)[C@H](CCC(N)=O)NC(=O)[C@H](CO)NC(=O)[C@@H](N)Cc1c[nH]cn1)[C@@H](C)O)[C@@H](C)O)C(=O)N[C@@H](C)C(=O)N[C@@H](C)C(=O)N[C@@H](Cc1c[nH]cn1)C(=O)N[C@@H](CC(=O)O)C(=O)N[C@@H](Cc1ccccc1)C(=O)N[C@H](C(=O)N[C@@H](CCC(=O)O)C(=O)N[C@@H](Cc1c[nH]c2ccccc12)C(=O)N[C@@H](CC(C)C)C(=O)N[C@@H](CC(C)C)C(=O)N[C@@H](CO)C(=O)N[C@@H](C)C(N)=O)C(C)C)C(=O)O
B6: Compound 14 (peptide)
peptide: H-H[Aib]QGTFTSDYSKYLDEK([γGlu-Palmitoyl])RAKDFIEWLLSA-OH
SMILES: CCCCCCCCCCCCCCCC(=O)N[C@@H](CCC(=O)NCCCC[C@H](NC(=O)[C@H](CCC(=O)O)NC(=O)[C@H](CC(=O)O)NC(=O)[C@H](CC(C)C)NC(=O)[C@H](Cc1ccc(O)cc1)NC(=O)[C@H](CCCCN)NC(=O)[C@H](CO)NC(=O)[C@H](Cc1ccc(O)cc1)NC(=O)[C@H](CC(=O)O)NC(=O)[C@H](CO)NC(=O)[C@@H](NC(=O)[C@H](Cc1ccccc1)NC(=O)[C@@H](NC(=O)CNC(=O)[C@H](CCC(N)=O)NC(=O)C(C)(C)NC(=O)[C@@H](N)Cc1c[nH]cn1)[C@@H](C)O)[C@@H](C)O)C(=O)N[C@@H](CCCNC(=N)N)C(=O)N[C@@H](C)C(=O)N[C@@H](CCCCN)C(=O)N[C@@H](CC(=O)O)C(=O)N[C@@H](Cc1ccccc1)C(=O)N[C@H](C(=O)N[C@@H](CCC(=O)O)C(=O)N[C@@H](Cc1c[nH]c2ccccc12)C(=O)N[C@@H](CC(C)C)C(=O)N[C@@H](CC(C)C)C(=O)N[C@@H](CO)C(=O)N[C@@H](C)C(=O)O)[C@@H](C)CC)C(=O)O

Key:
Assay in all cases: cell-based or functional assay
[1] = target: endogenous glucagon receptor of primary rat hepatocytes (rat, UniProt P30082 27-485)
Sequence of endogenous glucagon receptor of primary rat hepatocytes (P30082 27-485): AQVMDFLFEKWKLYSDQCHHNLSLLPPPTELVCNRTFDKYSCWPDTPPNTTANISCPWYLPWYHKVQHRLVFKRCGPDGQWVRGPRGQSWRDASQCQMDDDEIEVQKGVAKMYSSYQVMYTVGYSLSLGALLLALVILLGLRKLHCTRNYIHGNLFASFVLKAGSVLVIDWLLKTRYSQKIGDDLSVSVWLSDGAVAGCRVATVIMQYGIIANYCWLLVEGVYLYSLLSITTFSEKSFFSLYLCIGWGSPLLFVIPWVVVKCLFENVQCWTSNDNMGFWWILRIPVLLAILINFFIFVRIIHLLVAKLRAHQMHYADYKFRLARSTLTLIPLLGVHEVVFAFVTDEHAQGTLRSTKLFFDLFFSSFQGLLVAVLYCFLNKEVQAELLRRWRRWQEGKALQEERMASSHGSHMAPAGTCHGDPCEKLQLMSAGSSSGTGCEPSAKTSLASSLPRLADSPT

[2] = target: human glucagon receptor (Glucagon-R) (human, UniProt P47871 26-477)
Sequence of human glucagon receptor (Glucagon-R) (P47871 26-477): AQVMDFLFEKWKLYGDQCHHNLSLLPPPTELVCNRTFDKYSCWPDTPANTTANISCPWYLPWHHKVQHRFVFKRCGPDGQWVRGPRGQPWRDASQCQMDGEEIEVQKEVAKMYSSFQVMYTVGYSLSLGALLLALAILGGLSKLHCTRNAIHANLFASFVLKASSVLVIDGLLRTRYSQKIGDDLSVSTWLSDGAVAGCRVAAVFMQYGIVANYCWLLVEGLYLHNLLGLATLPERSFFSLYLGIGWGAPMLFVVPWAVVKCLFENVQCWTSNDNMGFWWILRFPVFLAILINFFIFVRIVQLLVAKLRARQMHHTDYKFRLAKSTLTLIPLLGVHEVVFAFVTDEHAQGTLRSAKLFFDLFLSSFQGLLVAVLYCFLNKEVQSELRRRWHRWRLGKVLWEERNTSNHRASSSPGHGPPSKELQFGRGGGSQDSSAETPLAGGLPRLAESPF

[3] = target: human glucagon-like peptide 1 receptor (GLP-1R) (human, UniProt P43220 24-463)
[4] = target: T1, endogenous GLP-1 receptor of a murine insulinoma cell line (murine, UniProt O35659 22-463)
T1 sequence (looked up): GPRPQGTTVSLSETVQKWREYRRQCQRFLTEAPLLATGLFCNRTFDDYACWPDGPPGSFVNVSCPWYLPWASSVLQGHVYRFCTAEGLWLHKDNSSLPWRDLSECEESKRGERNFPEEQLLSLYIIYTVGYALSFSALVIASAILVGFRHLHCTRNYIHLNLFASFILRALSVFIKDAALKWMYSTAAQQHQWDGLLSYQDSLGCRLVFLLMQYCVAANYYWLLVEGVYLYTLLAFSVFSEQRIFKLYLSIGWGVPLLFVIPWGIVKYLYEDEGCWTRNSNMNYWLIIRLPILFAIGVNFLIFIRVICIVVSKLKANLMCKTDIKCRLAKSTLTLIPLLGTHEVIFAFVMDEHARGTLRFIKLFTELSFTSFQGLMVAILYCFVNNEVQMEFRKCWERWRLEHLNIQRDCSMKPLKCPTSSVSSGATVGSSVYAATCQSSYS

Row | Binder | EC50 GLP-1R Rat hepat. [nM] (inhibition of glycogen synthesis) [1] | EC50 hGCGR CHO-K1 [nM] (cAMP) [2] | EC50 hGLP-1R CHO-K1 [nM] (cAMP) [3] | Ratio GLP-1/Glucagon (EC50 hGLP-1R / EC50 hGCGR) [3] [ratio] | EC50 GLP-1R (murine insulinoma cells) [nM] (cAMP) [4]
1 | B1 | 1.92 | 0.45 | 0.27 | 0.6 | 0.84
2 | B2 | 1.1 | 0.29 | 0.41 | 1.41 | 0.95
3 | B3 | 0.37 | 0.25 | 0.35 | 1.4 | 1.02
4 | B4 | 0.04 | 0.23 | 0.23 | 1 | 0.33
5 | B5 | 0.24 | 0.43 | 0.37 | 0.86 | 1.62
6 | HXQGTFTSDYSKYLDSXAAHDFVEWLLSA (Aib at position 2; Lys 17 K(Hexadecanoyl-isoGlu); C-terminal -OH) [Compound 13] | 0.67 | 0.98 | 0.51 | 0.52 | 1.06
7 | B6 | 0.1 | 0.54 | 0.53 | 0.98 | 0.72
8 | HXQGTFTSDYSKYLDEXAAKDFIEWLESA (Aib at position 2; Lys 17 K(Hexadecanoyl-isoGlu); C-terminal amide (-NH2)) [Compound 15] | 0.17 | 0.61 | 0.19 | 0.31 | 0.3
